{
  "source": "the nanobody polyreactivity screen of Harvey et al. (2022)",
  "data": [
    {"assay": "yeast display, Sf9 membrane polyspecificity reagent, FACS + sequencing; frameworks hold sequencing errors", "method_in_brief": "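A synthetic nanobody library was expressed on Saccharomyces cerevisiae BJ5465 by galactose induction for 36–48 hours. The library was stained for 1 hour at 4 °C with 10% biotinylated, detergent-solubilized Sf9 membrane reagent and enriched with streptavidin microbeads before FACS. Low and high (top ~1%) gates were set on anti-HA fluorescence for expression and streptavidin fluorescence for reagent binding, and each polyreactivity label reflects the gate of origin.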", "values": [
      {"sequence": "QVQLVESGGGLVQAGGSLRLSCAASGIIYKYAMGWYRQAPGKERELVAAISSGASTNYADSVKGRFTISRDNAKNTVYLQMNSLKPEDTAVYYCNVTTGASFEFDYWGQGTQVTVSS", "polyreactivity (PSR sort gate)": "low polyreactivity"},
      {"sequence": "QVQLVESGGGLVQAGGSLRLSCAASGIIYRQNAMGWYRQATRKEREFVAAISSGGNTYYADSVKGRFTISRDNAKNTVYLQMNSLKPEDTGFYYCAADVEDRYHRAWFDYWGQGTKVTVSS", "polyreactivity (PSR sort gate)": "low polyreactivity"},
      {"sequence": "QVQLVESGGGLVQAGGSLRLSCAASGIIYWVNAMGWYRQAPGKERELVAVINRGTYYADSVKGRFTISRDNAKNTVYLQMNSLKPEDTAVYYRYAYTSTTEYDYWGLGTQVTVSS", "polyreactivity (PSR sort gate)": "low polyreactivity"},
      {"sequence": "QVQLVESGGGLVQAGGSLRLSCAASGILSNYYAMGWYRQAPGKERELVASIRLSGGRTYYADSVKGRFTISRDNAKNTVYLQMNSLKPEDTAVYYCAAGTRRTYSKFDYWGQGTQVTVSS", "polyreactivity (PSR sort gate)": "high polyreactivity"},
      {"sequence": "QVQLVESGGGLVQAGGSLRLSCAASGINFCWYAMGWYRQAPGKERELVAAISGTGGSTYYADSVKGRFTISRDNAKNTVYLQMNSLKPEDTAVYYCAARGKSSSYYDYDYCGQGTQVTVSS", "polyreactivity (PSR sort gate)": "low polyreactivity"},
      {"sequence": "QVQLVESGGGLVQAGGSLRLSCAASGINFDDNTMGWYRQAPGKERELLAAISSSGGSTYYADSVKGRFTISRDNAKNTVYFQMNSLNPEDTAVYYCAAADYYTYPYIVYRNYPEFDYWGQGTQVTVSS", "polyreactivity (PSR sort gate)": "low polyreactivity"},
      {"sequence": "QVQLVESGGGLVQAGGSLRLSCAASGINFDGNVMGWYRPAPRKEREFFASISISGGSTSYADSVKGRFTISRDNAKNTVYLQMNSLKPEDTAVYYCNTDVCYGRVWRWRFHGDYWGQGTQVTVSS", "polyreactivity (PSR sort gate)": "low polyreactivity"},
      {"sequence": "QVQLVESGGGLVQAGGSLRLSCAASGINFGRYAMGWYRQAPGKERELVATITVNGGRTYYADSVKGRFTISRDNAKNTVYLQMNSLKPEDTAVYYCNAEVPGHYFDGWYFYDFDYWGQGTQVTVSS", "polyreactivity (PSR sort gate)": "low polyreactivity"},
      {"sequence": "QVQLVESGGGLVQAGGSLRLSCAASGINFGYYAMGWYRQAPGKERELVAAISRRGGSTYYADSVKGRFTISRDNAKNTVYLQMNSLKPEDTAVYYCYKRRAAGGFPYVYWGQGTQVTVSS", "polyreactivity (PSR sort gate)": "high polyreactivity"},
      {"sequence": "QVQLVESGGGLVQAGGSLRLSCAASGINFIYNAMGWYRQAPGKERELVATISRRGGSTYYADSVKGRFTISRDNAKNTVYLQMNSLKPEVTAVYYSARDVGAGSKISRLSSYNYWGQGTQVTVSS", "polyreactivity (PSR sort gate)": "low polyreactivity"},
      {"sequence": "QVQLVESGGGLVQAGGSLRLSCAASGINFNKYAMGWYRQAPGKEREFVAAITYRGGSTYYADSVKGRFTISRDNAKNTVYFQMNSLKPEDTAVYYCAARRITTYYYWGQGTQVTVSS", "polyreactivity (PSR sort gate)": "high polyreactivity"},
      {"sequence": "QVQLVESGGGLVQAGGSLRLSCAASGINFVYYAKGWYRPAAGKERELVAGITVNGGNTYYADSVKGRFTLSRDNAKNTVYLQMNSLKPEDTAVYYCNADYYWVLGVFDYWGHGTQVTVSS", "polyreactivity (PSR sort gate)": "low polyreactivity"},
      {"sequence": "QVQLVESGGGLVQAGGSLRLSCAASGINFYAYAMGWYRKAPGKERELVAAITFSAVSTYYADSVKGRFTISRDNAKNSVYLQMNSLKPEDTAVYYCAAEAYKQGVWDYDYWGQGTQVTVSS", "polyreactivity (PSR sort gate)": "low polyreactivity"},
      {"sequence": "QVQLVESGGGLVQAGGSLRLSCAASGISFNSYTMGGYRQAPGKERELVAAITASGGTTRYADSVKGRFTISRDNAKNTVYLQMNSLKPEYTAVYYCNALPFRYGKRRGYWGQGTQVTVSS", "polyreactivity (PSR sort gate)": "low polyreactivity"},
      {"sequence": "QVQLVESGGGLVQAGGSLRLSCAASGISFYSYTMGWYIQAPGKERELVAAIRGSDGSTYYADSVKGRFTLSRDNAKNTVYLQMNSLKPEVTAVYYCNRKFYWRRDYWGQGTQVTVSS", "polyreactivity (PSR sort gate)": "high polyreactivity"},
      {"sequence": "QVQLVESGGGLVQAGGSLRLSCAASGITCTFNTMGWYRQAPGKERELVAGITNGGSTYYADSVKGRFTISRDNAKNTVYLQMNSLKPEDTAVYYCNAQRRLRYGWFGPYDYWGQGTQVTVSS", "polyreactivity (PSR sort gate)": "low polyreactivity"},
      {"sequence": "QVQLVESGGGLVQAGGSLRLSCAASGITFAFYDKGWYRQPPGKERELVAAISYSGGGTYYADSVKGRFTISRDNAKNNVYLQMNSLKPEDTAVYYCAADPKTHPLFGEDYWGQGTQVTVSS", "polyreactivity (PSR sort gate)": "low polyreactivity"},
      {"sequence": "QVQLVESGGGLVQAGGSLRLSCAASGITFALNAMGWYRQAPGKERELVAAISWSGDSTYYADSVKGRFTISRDNAKNTVYLQMNSLKPEDTAVYYCAAVAYLNWTPHYYWGQGTQVTVSS", "polyreactivity (PSR sort gate)": "low polyreactivity"},
      {"sequence": "QVQLVESGGGLVQAGGSLRLSCAASGITFANYAVGWYRQAPGKERELVAAISTSGGSTYYADSVKGRFTISRDNAKNTVDLQMNSLKPEDTAVYYCAARPYPWANFGYWGQGTQVTVSS", "polyreactivity (PSR sort gate)": "high polyreactivity"},
      {"sequence": "QVQLVESGGGLVQAGGSLRLSCAASGITFAPYAMGWYRQAPGKEREFVAGISWSGTTTYYADSVKGRFTISRDNAKNTVYLQMNSLKPEDTAVYYCATDYFNYGYFDFRWYYYWGQGTQVTVSS", "polyreactivity (PSR sort gate)": "high polyreactivity"},
      {"sequence": "QVQLVESGGGLVQAGGSLRLSCAASGITFARYAMGLYIQAPGKERELVAAISKRGGRKYYADSVKGRFTISRDNAKNTVYLQMNSLKPEDTAVYYCATDYYVSTDYNLWGQGTQVTVSS", "polyreactivity (PSR sort gate)": "high polyreactivity"},
      {"sequence": "QVQLVESGGGLVQAGGSLRLSCAASGITFAYYAKAWYRQAPGKERELVAAINWSGGSTYYADSVKGRFTISRDNAKNTVYLQMNSLKPEDTAVYYCNAVPRRGYSRRDYWGQGTQVTVSS", "polyreactivity (PSR sort gate)": "high polyreactivity"},
      {"sequence": "QVQLVESGGGLVQAGGSLRLSCAASGITFCDNTMGWYRQAPGKERELVAAITYSSTSTYYADSVKGRFTISRDNAKNTVYLQMNSLKTEDTAVYYCAAEGPGDVVSTDYDFWGQGTQVTVSS", "polyreactivity (PSR sort gate)": "low polyreactivity"},
      {"sequence": "QVQLVESGGGLVQAGGSLRLSCAASGITFCSYTMGWYRQAPGKERELVAVISSGGSTNYADSVKGRFTISRDNAKNTVYLQMNSLKPEDTAVYYCAADFRWWYTGFDYWGQGTQVTVSS", "polyreactivity (PSR sort gate)": "high polyreactivity"},
      {"sequence": "QVQLVESGGGLVQAGGSLRLSCAASGITFCYYVMGWYRQAPGKERELVAAISSGSSTYYADSVKGRFTISRDNAKNTVYLQMNSLKPEDTAVYYCAAESVYWLEFRYYYWGQGTQVTVSS", "polyreactivity (PSR sort gate)": "low polyreactivity"},
      {"sequence": "QVQLVESGGGLVQAGGSLRLSCAASGITFDDNAMGWYRQAPGKERELVATISDGGRTYYADSVKGRFTISRDNAKNTVYLQMNSLKPEDTAVYYCAAGYPYYHVYGYGYWGQGTQVTVSS", "polyreactivity (PSR sort gate)": "low polyreactivity"},
      {"sequence": "QVQLVESGGGLVQAGGSLRLSCAASGITFDDYVMGWYRQAPGKERELVAAITRSGGRTYYADSVKGRFTISRDNAKNTVDLQMNSLKPEVTAVYYCAARHRDNRFDYWGQGTQVTVSS", "polyreactivity (PSR sort gate)": "high polyreactivity"},
      {"sequence": "QVQLVESGGGLVQAGGSLRLSCAASGITFDGNAMGWYRQAPGKERELVAGISGSGGGTYYADSVKGRFTISRDNAKNTVYLQMNSLKPEDTAVYYCAADTSTSHAYDYWGQGTQVTVSS", "polyreactivity (PSR sort gate)": "low polyreactivity"},
      {"sequence": "QVQLVESGGGLVQAGGSLRLSCAASGITFDHYAMGWYRQAPGKERELVAAITSGGNTNYADSVKGRFTISRDNAKNTVYLQMNILKPVDTAVYYCNARYDVWYYYWGQGTQVTVSS", "polyreactivity (PSR sort gate)": "high polyreactivity"},
      {"sequence": "QVQLVESGGGLVQAGGSLRLSCAASGITFDLYAMGWYRQAPGKERELVAAISISSTSTYYADSVKGRFTISRDNAKNTVYLQMNSLKPEDTAVYYCNAVPSSKTFWFDYWGQGTQVTVSS", "polyreactivity (PSR sort gate)": "low polyreactivity"},
      {"sequence": "QVQLVESGGGLVQAGGSLRLSCAASGITFDRYLMGWYRQAPGKERELDAAISWTGDSTYYADSVKGRFTISRDNAKNTVYLQMNSLKPEDPAVYYCAAEDLWYGYNYWGQGTQVTVSS", "polyreactivity (PSR sort gate)": "high polyreactivity"},
      {"sequence": "QVQLVESGGGLVQAGGSLRLSCAASGITFDSNAMGWYRQAPGNERELVAAISSTGSTDYADSVKGRFTITRDNAKNTVYLQMNSLKPEDTAVYYCATGGRGGRRYEYWGQGTQVTVSS", "polyreactivity (PSR sort gate)": "low polyreactivity"},
      {"sequence": "QVQLVESGGGLVQAGGSLRLSCAASGITFDSNTKGWYRPAPGKEREFVATISYSGGSTYYADSVKGRFTISRDNAKNTVYFQMNSLKPEDTAVYYCHADYYGGPTMQYGYLWYDYWGEGTQVTVSS", "polyreactivity (PSR sort gate)": "low polyreactivity"},
      {"sequence": "QVQLVESGGGLVQAGGSLRLSCAASGITFDSYAMGWYRQAPGKEREFVAAISRSGGSTYYADSVKGRFTISRDNAKNTVYLQMNSLKPEDTAVYYCAVSLGRGSSWKLGYWGQGTQVTVSS", "polyreactivity (PSR sort gate)": "high polyreactivity"},
      {"sequence": "QVQLVESGGGLVQAGGSLRLSCAASGITFDSYAMGWYRQAPGKERELVAAISYSGGSTYYADSVKGRFTISRDNAKNTVYLQMNSLKPEDTAVYYCAAASDDDYDYWGQGTQVTVSS", "polyreactivity (PSR sort gate)": "low polyreactivity"},
      {"sequence": "QVQLVESGGGLVQAGGSLRLSCAASGITFEGYAMGGYRQAPGKERELVAAIRSSGTSTYYADSVKGRFTISRDNAKNTVYLQMNSLKPEDTAVYYCNRARSSSLYDYWGQGTQVTVSS", "polyreactivity (PSR sort gate)": "low polyreactivity"},
      {"sequence": "QVQLVESGGGLVQAGGSLRLSCAASGITFEGYAMGRYRQAPGKERELVAAITGSGSTTYYADSVKGRFTISRDNAKNTVYLQMNSLKPEDTAVYYCAADVSYKLYWGQGTQVTVSS", "polyreactivity (PSR sort gate)": "low polyreactivity"},
      {"sequence": "QVQLVESGGGLVQAGGSLRLSCAASGITFEGYAMGWYRQAPGKERELVAAITGSGSTTYYADSVKGRFTISRDNAKNTVYLQMNSLKPEDTAVYYCAADVSYKLYWGQGTQVTVSS", "polyreactivity (PSR sort gate)": "low polyreactivity"},
      {"sequence": "QVQLVESGGGLVQAGGSLRLSCAASGITFEGYAMGWYRQAPGKERELVAAITWSGGRTYYADSVKGRFTISRDNAKNTVYLQMNSLKPEDTAVYYCAADVSDWSNQYFDSYLRMDYWGQGTQVTVSS", "polyreactivity (PSR sort gate)": "low polyreactivity"},
      {"sequence": "QVQLVESGGGLVQAGGSLRLSCAASGITFEIYVMGWYRQAPGKERELVAAITSDDTTYADSVKGRFTISRDNAKNTVYLQMNSLKPEDTAVYYCAADYYGVGVGPYSPADEYDYWGQGTQVTVSS", "polyreactivity (PSR sort gate)": "low polyreactivity"},
      {"sequence": "QVQLVESGGGLVQAGGSLRLSCAASGITFEKYAMGWYRQAPGKERELVAAITSSGGSTYYADSVKGRFTISRDNAKNTVYLQMNSLKPEDTAVYYCKARYYYADRTSGGYYYWGQGTQVTVSS", "polyreactivity (PSR sort gate)": "high polyreactivity"},
      {"sequence": "QVQLVESGGGLVQAGGSLRLSCAASGITFERYAIGWYRQAPGKERELVAAITSSGGSTYYADSVKGRFTISRDNAKNTVYLQMNSLKPEDTAVYYCAARNAYTPRHDYWGQGTQVTVSS", "polyreactivity (PSR sort gate)": "high polyreactivity"},
      {"sequence": "QVQLVESGGGLVQAGGSLRLSCAASGITFERYTMGWYRQAPGKERELVAAIRGSGGTYYADSVKGRFTISRDNAKNTVYLQMNSLKPEDTAVYYCAARYSYRYGVVYGTLHGYWGQGTQVTVSS", "polyreactivity (PSR sort gate)": "high polyreactivity"}
    ]}
  ]
}
